Measurements published in publication doi:10.1101/2024.07.10.602906.

How the values were obtained:
[1] = biological target: GV CW1 murine norovirus VP1 P-domain (wild type) (murine norovirus (GV, MNV-1 CW1)) (UniProt Q80J95); assay: methyl TROSY NMR
[2] = biological target: GV CW1 murine norovirus VP1 P-domain (wild type) (murine norovirus (GV, MNV-1 CW1)) (UniProt Q80J95); assay: NMR titration

## GV CW1 murine norovirus VP1 P-domain (wild type) (from UniProt Q80J95 228-530) (domain or fragment)
[1]
  percent dimers at pH* 5.3: > 70%
  percent monomers at pH 7.4: 70%
[2]
  Kd: 45 µM
  koff: 4.7 s⁻¹
